Measured values taken from the supplement of paper PMC9170038.

System: MS2 coat protein
Experiment: apparent KD of MS2 coat protein; higher = weaker reporter binding
Conditions: Eterna round: R107
Summary of the method: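 Binding of SNAP-549-labelled MS2 coat protein was measured on designed RNA switches transcribed on-chip from Illumina sequencing clusters. The protein rose in twofold steps from 0.7 or 1.5 nM to 3 µM, with 0.8–1.5 h per step early on and 10–20 min per step later, in 100 mM Tris-HCl pH 7.5, 80 mM KCl, 4 mM MgCl2, without or with constant ligand. Each design's apparent KD is the median of fits to its normalised cluster binding curves.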

[1] = input ligand: theophylline 20 uM
[2] = input ligand: tryptophan 2.4 mM
[3] = input ligand: theophylline 2 mM

Sequence	apparent KD of MS2 coat protein (input ligand: arginine 13.2 mM) [nM]	apparent KD of MS2 coat protein [1] [nM]	apparent KD of MS2 coat protein [2] [nM]	apparent KD of MS2 coat protein [3] [nM]	apparent KD of MS2 coat protein (input ligand: none) [nM]
UGAUCCUACAGAGAUACCAGUGCCGCUAGAUAACUAUGCACAUGAGGAUCACCCAUGUAACACCCUUGGCAGCUCAACUAAAGGG [Same State Theophylline B GF20]	42.5	127	79.7		
CACGAAAGAUCGGCCGCCACUCAUGUAGCUUACAUGAGGAUCACCCAUGUAUUUUCUUUCUUUUAGAGGACCGGGAUCGAGCGUG [#02 Same State - Tryptophan B]	33.6	65.2		43.5	
GCGAUACGUACUGAUACCAGAGACAUGAGGAUCACCCAUGUCCCAUGAUCAUACCUCAGACUCCCUUGGCAGCAGGAUAAGUGAG [Exclusion Theophylline B GF2]	11.3	15.1	12		
UUCUACGACGAUCUGGGAAAACCAGAUCGACGAGGACCGGUACGGCCGCCACUCGUGUUUCUUUAACAUGAGGAUCACCCAUGUA [#12 Tryptophan A Same State]	23.6	28		27.8	
GUGCGGUCUGAUGAUACCAGAUGUGGUGGGAACAUGAGGAUCACCCAUGUUGUGAGGCAGGUCCCUUGGCAGCAUGAGUGAGCUU [TheoB-ms2@32-2]	12.4	229	72.6	156	119
UUUUAAGGGAUCGGUGCUGGUAGCAGAGAUACCAGAGUAAUGAUACUCCCUUGGCAGCUCAGUACAUGAGGAUCACCCAUGUUUU [Exclusion Theophylline A GF25]	16.7	23.2	18.1		
AUACGGAACAGAAGGAGCGCACCGACAUGAGGAUCACCCAUGUGGGAUGGGACUCUUUUGGUGCAGGUAGGUCGCUGUCACGCAU [Maistile]	129	51.9	35.5	44	35
CACAUGAGGAUCACCCAUGUCUGAACUGAAGGAGCGCUAAACAAGGCAGGUAGGUCGCGGAAUCGUGUGUGCAUAUGCACACGCG [9.V]	13.6	17.9	16.5	31.3	22
ACGCACAUGAGGAUCACCCAUGUGAACCUACGAGGACCGGUACGGCCGCCACUCGCUGUUCCUACCGGCUUAAUUGUCACUGGGU [theeternabot_sameState_MS2_Trp_A_19]	27.3	54.4		49	
UAUAAAAUAACAGAUACCAGCGUGUUAUAAAACAUGAGGAUCACCCAUGUAGUGAUCAAGCGCCCUUGGCAGCUGGUAUUUUAUA [7.B]	97.2	150	142		
AGCAACAAGUCGGCCGCCACUCAUAUUACAUGAGGAUCACCCAUGUUUACAUCAAGGUCAUAAUAGAGGACCGGGACAGUUGCAU [JR_SSTryptoB_Sub017]	24.5	39.3		41.5	
CCAAGCAUAAUAGAUACCAGUCGUAUACCUCCAACAUGAGGAUCACCCAUGUGCUCAGUUGACCCUUGGCAGCUAUGCCUAUAGA [theeternabot_sameState_MS2_Theo_B_1]	37.4	53.3	38.2		
CCACUUUCUUUUAUCUUUCUUUCUUUGUUACGAGGACCGGUACGGCCGCCACUCGUGGUGUGUGGUACAUGAGGAUCACCCAUGU	23.1	34.9		32.9	
GAUCGAAAUAACGCAUAGGAAAACUAUGCGCGAGGACCGGUACGGCCGCCACUCGUCCUCACAUGAGGAUCACCCAUGUACGAUC [#SwitchBubble #CuTurnoff]	23.1	29.1		27.6	
UGUAUGUGAUUUGAUACCAGACCAGCUGGUGGUAUCUGAGGAUCACCCAGGUAGGUUUGGGUCCCUUGGCAGCAAAUCGCAUACU [SS Theo B #24 Ms15]	145	892	1720	335	186
